Reference: US20200129634A1
Values belong to the binder of their own block, whether it stands above or below them. Non-standard residues stand in square brackets, D forms with d. No end group written: not given here.

Legend:
human serum proteins = assay: cell-based or functional assay
D36 (D40(A13K/A16K)) = assay: RP-HPLC temperature profiling 5-77 C, pH 2, self-association (dimerization/oligomerization) relative to random coil control RC
D35 (D39(A13K/A16K)) = assay: as above
D33 (D37(A13K/A16K)) = assay: as above
D84 (D33(A1K)) [1] = assay: RP-HPLC temperature profiling (0.25% B/min gradient), Mix 1, self-association relative to RC
D84 (D33(A1K)) [2] = assay: RP-HPLC temperature profiling (0.25% B/min gradient), Mix 2, self-association relative to RC
D84 (D33(A1K)) [3] = assay: RP-HPLC temperature profiling (0.25% B/min gradient), Mix 3, self-association relative to RC
D84 (D33(A1K)) [4] = assay: RP-HPLC temperature profiling (0.25% B/min gradient), Mix 4, self-association relative to RC
D34 (D38(A13K/A16K)) = assay: RP-HPLC temperature profiling 5-77 C, pH 2, self-association (dimerization/oligomerization) relative to random coil control RC

MIC against A. baumannii strain 649 in 25% human serum (no serum: 0.4) (human serum proteins): 0.7 µM | PA (self-association parameter) (D36 (D40(A13K/A16K))): 5.6 min
B1: D36 (D40(A13K/A16K)) (peptide)
peptide: [dA][dL][dA][dS][dL][dL][dK][dT][dL][dS][dK][dA][dK][dK][dK][dK][dL][dK][dT][dL][dL][dK][dA][dL][dS][dA]-NH2
modifications: N-terminus assumed
SMILES: CC(C)C[C@@H](NC(=O)[C@@H](C)N)C(=O)N[C@H](C)C(=O)N[C@H](CO)C(=O)N[C@H](CC(C)C)C(=O)N[C@H](CC(C)C)C(=O)N[C@H](CCCCN)C(=O)N[C@@H](C(=O)N[C@H](CC(C)C)C(=O)N[C@H](CO)C(=O)N[C@H](CCCCN)C(=O)N[C@H](C)C(=O)N[C@H](CCCCN)C(=O)N[C@H](CCCCN)C(=O)N[C@H](CCCCN)C(=O)N[C@H](CCCCN)C(=O)N[C@H](CC(C)C)C(=O)N[C@H](CCCCN)C(=O)N[C@@H](C(=O)N[C@H](CC(C)C)C(=O)N[C@H](CC(C)C)C(=O)N[C@H](CCCCN)C(=O)N[C@H](C)C(=O)N[C@H](CC(C)C)C(=O)N[C@H](CO)C(=O)N[C@H](C)C(N)=O)[C@H](C)O)[C@H](C)O

MIC against A. baumannii strain 649 in 25% human serum (no serum: 0.4) (human serum proteins): 1.4 µM | PA (self-association parameter) (D35 (D39(A13K/A16K))): 5.5 min
B2: D35 (D39(A13K/A16K)) (peptide)
peptide: [dA][dL][dK][dS][dL][dL][dA][dT][dL][dS][dK][dA][dK][dK][dK][dK][dL][dK][dT][dL][dL][dA][dA][dL][dS][dK]-NH2
modifications: N-terminus assumed
SMILES: CC(C)C[C@@H](NC(=O)[C@@H](C)N)C(=O)N[C@H](CCCCN)C(=O)N[C@H](CO)C(=O)N[C@H](CC(C)C)C(=O)N[C@H](CC(C)C)C(=O)N[C@H](C)C(=O)N[C@@H](C(=O)N[C@H](CC(C)C)C(=O)N[C@H](CO)C(=O)N[C@H](CCCCN)C(=O)N[C@H](C)C(=O)N[C@H](CCCCN)C(=O)N[C@H](CCCCN)C(=O)N[C@H](CCCCN)C(=O)N[C@H](CCCCN)C(=O)N[C@H](CC(C)C)C(=O)N[C@H](CCCCN)C(=O)N[C@@H](C(=O)N[C@H](CC(C)C)C(=O)N[C@H](CC(C)C)C(=O)N[C@H](C)C(=O)N[C@H](C)C(=O)N[C@H](CC(C)C)C(=O)N[C@H](CO)C(=O)N[C@H](CCCCN)C(N)=O)[C@H](C)O)[C@H](C)O

MIC against A. baumannii strain 649 in 25% human serum (no serum: 0.1) (human serum proteins): 0.7 µM | PA (self-association parameter) (D33 (D37(A13K/A16K))): 5.3 min
B3: D33 (D37(A13K/A16K)) (peptide)
peptide: [dA][dL][dK][dS][dL][dL][dK][dT][dL][dS][dK][dA][dK][dA][dA][dK][dL][dK][dT][dL][dL][dK][dA][dL][dS][dK]-NH2
modifications: N-terminus assumed
SMILES: CC(C)C[C@@H](NC(=O)[C@@H](C)N)C(=O)N[C@H](CCCCN)C(=O)N[C@H](CO)C(=O)N[C@H](CC(C)C)C(=O)N[C@H](CC(C)C)C(=O)N[C@H](CCCCN)C(=O)N[C@@H](C(=O)N[C@H](CC(C)C)C(=O)N[C@H](CO)C(=O)N[C@H](CCCCN)C(=O)N[C@H](C)C(=O)N[C@H](CCCCN)C(=O)N[C@H](C)C(=O)N[C@H](C)C(=O)N[C@H](CCCCN)C(=O)N[C@H](CC(C)C)C(=O)N[C@H](CCCCN)C(=O)N[C@@H](C(=O)N[C@H](CC(C)C)C(=O)N[C@H](CC(C)C)C(=O)N[C@H](CCCCN)C(=O)N[C@H](C)C(=O)N[C@H](CC(C)C)C(=O)N[C@H](CO)C(=O)N[C@H](CCCCN)C(N)=O)[C@H](C)O)[C@H](C)O

PA (self-association parameter) (D84 (D33(A1K)) [1]): 6.8 min | PA (self-association parameter) (D84 (D33(A1K)) [2]): 6.8 min | PA (self-association parameter) (D84 (D33(A1K)) [3]): 6.8 min | PA (self-association parameter) (D84 (D33(A1K)) [4]): 6.8 min
Binder: Ac-KLKSLLKTLSKAKAAKLKTLLKALSK-NH2 (not fully specified; also: D-enantiomeric residues, extent not given here) [D84 (D33(A1K))]

MIC against A. baumannii strain 649 in 25% human serum (no serum: 0.2) (human serum proteins): 1.4 µM | PA (self-association parameter) (D34 (D38(A13K/A16K))): 5.7 min
B4: D34 (D38(A13K/A16K)) (peptide)
peptide: [dA][dL][dK][dS][dL][dL][dK][dT][dL][dS][dA][dA][dK][dK][dK][dK][dL][dA][dT][dL][dL][dK][dA][dL][dS][dK]-NH2
modifications: N-terminus assumed
SMILES: CC(C)C[C@@H](NC(=O)[C@@H](C)N)C(=O)N[C@H](CCCCN)C(=O)N[C@H](CO)C(=O)N[C@H](CC(C)C)C(=O)N[C@H](CC(C)C)C(=O)N[C@H](CCCCN)C(=O)N[C@@H](C(=O)N[C@H](CC(C)C)C(=O)N[C@H](CO)C(=O)N[C@H](C)C(=O)N[C@H](C)C(=O)N[C@H](CCCCN)C(=O)N[C@H](CCCCN)C(=O)N[C@H](CCCCN)C(=O)N[C@H](CCCCN)C(=O)N[C@H](CC(C)C)C(=O)N[C@H](C)C(=O)N[C@@H](C(=O)N[C@H](CC(C)C)C(=O)N[C@H](CC(C)C)C(=O)N[C@H](CCCCN)C(=O)N[C@H](C)C(=O)N[C@H](CC(C)C)C(=O)N[C@H](CO)C(=O)N[C@H](CCCCN)C(N)=O)[C@H](C)O)[C@H](C)O
